Data published in IntAct's records for PubMed 25789606.

B1: Ameloblastin (Homo sapiens), Q9NP70 (parent)
chain: MSASKIPLFKMKDLILILCLLEMSFAVPFFPQQSGTPGMASLSLETMRQLGSLQRLNTLSQYSRYGFGKSFNSLWMHGLLPPHSSLPWMRPREHETQQYEYSLPVHPPPLPSQPSLKPQQPGLKPFLQSAAATTNQATALKEALQPPIHLGHLPLQEGELPLVQQQVAPSDKPPKPELPGVDFADPQGPSLPGMDFPDPQGPSLPGLDFADPQGSTIFQIARLISHGPMPQNKQSPLYPGMLYVPFGANQLNAPARLGIMSSEEVAGGREDPMAYGAMFPGFGGMRPGFEGMPHNPAMGGDFTLEFDSPVAATKGPENEEGGAQGSPMPEANPDNLENPAFLTELEPAPHAGLLALPKDDIPGLPRSPSGKMKGLPSVTPAAADPLMTPELADVYRTYDADMTTSVDFQEEATMDTTMAPNSLQTSMPGNKAQEPEMMHDAWHFQEP

Variants of: B1
Settings: with fa20c_human FAM20C

effect of a mutation on the interaction | Variant
with no effect | MSASKIPLFKMKDLILILCLLEMSFAVPFFPQQSGTPGMAALSLETMRQLGSLQRLNTLSQYSRYGFGKSFNSLWMHGLLPPHSSLPWMRPREHETQQYEYSLPVHPPPLPSQPSLKPQQPGLKPFLQSAAATTNQATALKEALQPPIHLGHLPLQEGELPLVQQQVAPSDKPPKPELPGVDFADPQGPSLPGMDFPDPQGPSLPGLDFADPQGSTIFQIARLISHGPMPQNKQSPLYPGMLYVPFGANQLNAPARLGIMSSEEVAGGREDPMAYGAMFPGFGGMRPGFEGMPHNPAMGGDFTLEFDSPVAATKGPENEEGGAQGSPMPEANPDNLENPAFLTELEPAPHAGLLALPKDDIPGLPRSPSGKMKGLPSVTPAAADPLMTPELADVYRTYDADMTTSVDFQEEATMDTTMAPNSLQTSMPGNKAQEPEMMHDAWHFQEP [S41A]
with no effect | MSASKIPLFKMKDLILILCLLEMSFAVPFFPQQSGTPGMASLSLEAMRQLGSLQRLNTLSQYSRYGFGKSFNSLWMHGLLPPHSSLPWMRPREHETQQYEYSLPVHPPPLPSQPSLKPQQPGLKPFLQSAAATTNQATALKEALQPPIHLGHLPLQEGELPLVQQQVAPSDKPPKPELPGVDFADPQGPSLPGMDFPDPQGPSLPGLDFADPQGSTIFQIARLISHGPMPQNKQSPLYPGMLYVPFGANQLNAPARLGIMSSEEVAGGREDPMAYGAMFPGFGGMRPGFEGMPHNPAMGGDFTLEFDSPVAATKGPENEEGGAQGSPMPEANPDNLENPAFLTELEPAPHAGLLALPKDDIPGLPRSPSGKMKGLPSVTPAAADPLMTPELADVYRTYDADMTTSVDFQEEATMDTTMAPNSLQTSMPGNKAQEPEMMHDAWHFQEP [T46A]
with no effect | MSASKIPLFKMKDLILILCLLEMSFAVPFFPQQSGAPGMASLSLETMRQLGSLQRLNTLSQYSRYGFGKSFNSLWMHGLLPPHSSLPWMRPREHETQQYEYSLPVHPPPLPSQPSLKPQQPGLKPFLQSAAATTNQATALKEALQPPIHLGHLPLQEGELPLVQQQVAPSDKPPKPELPGVDFADPQGPSLPGMDFPDPQGPSLPGLDFADPQGSTIFQIARLISHGPMPQNKQSPLYPGMLYVPFGANQLNAPARLGIMSSEEVAGGREDPMAYGAMFPGFGGMRPGFEGMPHNPAMGGDFTLEFDSPVAATKGPENEEGGAQGSPMPEANPDNLENPAFLTELEPAPHAGLLALPKDDIPGLPRSPSGKMKGLPSVTPAAADPLMTPELADVYRTYDADMTTSVDFQEEATMDTTMAPNSLQTSMPGNKAQEPEMMHDAWHFQEP [T36A]
with no effect | MSASKIPLFKMKDLILILCLLEMSFAVPFFPQQAGTPGMASLSLETMRQLGSLQRLNTLSQYSRYGFGKSFNSLWMHGLLPPHSSLPWMRPREHETQQYEYSLPVHPPPLPSQPSLKPQQPGLKPFLQSAAATTNQATALKEALQPPIHLGHLPLQEGELPLVQQQVAPSDKPPKPELPGVDFADPQGPSLPGMDFPDPQGPSLPGLDFADPQGSTIFQIARLISHGPMPQNKQSPLYPGMLYVPFGANQLNAPARLGIMSSEEVAGGREDPMAYGAMFPGFGGMRPGFEGMPHNPAMGGDFTLEFDSPVAATKGPENEEGGAQGSPMPEANPDNLENPAFLTELEPAPHAGLLALPKDDIPGLPRSPSGKMKGLPSVTPAAADPLMTPELADVYRTYDADMTTSVDFQEEATMDTTMAPNSLQTSMPGNKAQEPEMMHDAWHFQEP [S34A]
